This passage reports EC50 (nM) for cAMP generation, Alpha Screen and EC50 (nM) for cAMP generation, DiscoveRx results from patent publication US20080096811A1, “[…] VPAC2 RECEPTOR PEPTIDE AGONISTS” (Eli Lilly and Company, published 2008).

To fix the notation:
B1: P80 (peptide)
peptide: HSDAVFTDNYTRLRKQVAAKKYLQSIKNSRTSPPPK([γGlu-Palmitoyl])-NH2
modifications: N-terminus assumed
SMILES: CCCCCCCCCCCCCCCC(=O)N[C@@H](CCC(=O)NCCCC[C@H](NC(=O)[C@@H]1CCCN1C(=O)[C@@H]1CCCN1C(=O)[C@@H]1CCCN1C(=O)[C@H](CO)NC(=O)[C@@H](NC(=O)[C@H](CCCNC(=N)N)NC(=O)[C@H](CO)NC(=O)[C@H](CC(N)=O)NC(=O)[C@H](CCCCN)NC(=O)[C@@H](NC(=O)[C@H](CO)NC(=O)[C@H](CCC(N)=O)NC(=O)[C@H](CC(C)C)NC(=O)[C@H](Cc1ccc(O)cc1)NC(=O)[C@H](CCCCN)NC(=O)[C@H](CCCCN)NC(=O)[C@H](C)NC(=O)[C@H](C)NC(=O)[C@@H](NC(=O)[C@H](CCC(N)=O)NC(=O)[C@H](CCCCN)NC(=O)[C@H](CCCNC(=N)N)NC(=O)[C@H](CC(C)C)NC(=O)[C@H](CCCNC(=N)N)NC(=O)[C@@H](NC(=O)[C@H](Cc1ccc(O)cc1)NC(=O)[C@H](CC(N)=O)NC(=O)[C@H](CC(=O)O)NC(=O)[C@@H](NC(=O)[C@H](Cc1ccccc1)NC(=O)[C@@H](NC(=O)[C@H](C)NC(=O)[C@H](CC(=O)O)NC(=O)[C@H](CO)NC(=O)[C@@H](N)Cc1c[nH]cn1)C(C)C)[C@@H](C)O)[C@@H](C)O)C(C)C)[C@@H](C)CC)[C@@H](C)O)C(N)=O)C(=O)O
B2: P91 (peptide)
peptide: Bz-HSDAVFTDNYTRLRKQVAAKKYLQSIKNSRTSPPP-NH2
SMILES: CC[C@H](C)[C@H](NC(=O)[C@H](CO)NC(=O)[C@H](CCC(N)=O)NC(=O)[C@H](CC(C)C)NC(=O)[C@H](Cc1ccc(O)cc1)NC(=O)[C@H](CCCCN)NC(=O)[C@H](CCCCN)NC(=O)[C@H](C)NC(=O)[C@H](C)NC(=O)[C@@H](NC(=O)[C@H](CCC(N)=O)NC(=O)[C@H](CCCCN)NC(=O)[C@H](CCCNC(=N)N)NC(=O)[C@H](CC(C)C)NC(=O)[C@H](CCCNC(=N)N)NC(=O)[C@@H](NC(=O)[C@H](Cc1ccc(O)cc1)NC(=O)[C@H](CC(N)=O)NC(=O)[C@H](CC(=O)O)NC(=O)[C@@H](NC(=O)[C@H](Cc1ccccc1)NC(=O)[C@@H](NC(=O)[C@H](C)NC(=O)[C@H](CC(=O)O)NC(=O)[C@H](CO)NC(=O)[C@H](Cc1c[nH]cn1)NC(=O)c1ccccc1)C(C)C)[C@@H](C)O)[C@@H](C)O)C(C)C)C(=O)N[C@@H](CCCCN)C(=O)N[C@@H](CC(N)=O)C(=O)N[C@@H](CO)C(=O)N[C@@H](CCCNC(=N)N)C(=O)N[C@H](C(=O)N[C@@H](CO)C(=O)N1CCC[C@H]1C(=O)N1CCC[C@H]1C(=O)N1CCC[C@H]1C(N)=O)[C@@H](C)O
B3: P178 (peptide)
peptide: Hexanoyl-HSDAVFTDNYTRLRKAAAAKKYLQSIKNSRTSPPP-NH2
SMILES: CCCCCC(=O)N[C@@H](Cc1c[nH]cn1)C(=O)N[C@@H](CO)C(=O)N[C@@H](CC(=O)O)C(=O)N[C@@H](C)C(=O)N[C@H](C(=O)N[C@@H](Cc1ccccc1)C(=O)N[C@H](C(=O)N[C@@H](CC(=O)O)C(=O)N[C@@H](CC(N)=O)C(=O)N[C@@H](Cc1ccc(O)cc1)C(=O)N[C@H](C(=O)N[C@@H](CCCNC(=N)N)C(=O)N[C@@H](CC(C)C)C(=O)N[C@@H](CCCNC(=N)N)C(=O)N[C@@H](CCCCN)C(=O)N[C@@H](C)C(=O)N[C@@H](C)C(=O)N[C@@H](C)C(=O)N[C@@H](C)C(=O)N[C@@H](CCCCN)C(=O)N[C@@H](CCCCN)C(=O)N[C@@H](Cc1ccc(O)cc1)C(=O)N[C@@H](CC(C)C)C(=O)N[C@@H](CCC(N)=O)C(=O)N[C@@H](CO)C(=O)N[C@H](C(=O)N[C@@H](CCCCN)C(=O)N[C@@H](CC(N)=O)C(=O)N[C@@H](CO)C(=O)N[C@@H](CCCNC(=N)N)C(=O)N[C@H](C(=O)N[C@@H](CO)C(=O)N1CCC[C@H]1C(=O)N1CCC[C@H]1C(=O)N1CCC[C@H]1C(N)=O)[C@@H](C)O)[C@@H](C)CC)[C@@H](C)O)[C@@H](C)O)C(C)C
B4: P128 (peptide)
peptide: HSDAVFTDNYTRLRKQVAAKKYLQSIKNSRTSPPPK(Trp)-NH2
modifications: N-terminus assumed
SMILES: CC[C@H](C)[C@H](NC(=O)[C@H](CO)NC(=O)[C@H](CCC(N)=O)NC(=O)[C@H](CC(C)C)NC(=O)[C@H](Cc1ccc(O)cc1)NC(=O)[C@H](CCCCN)NC(=O)[C@H](CCCCN)NC(=O)[C@H](C)NC(=O)[C@H](C)NC(=O)[C@@H](NC(=O)[C@H](CCC(N)=O)NC(=O)[C@H](CCCCN)NC(=O)[C@H](CCCNC(=N)N)NC(=O)[C@H](CC(C)C)NC(=O)[C@H](CCCNC(=N)N)NC(=O)[C@@H](NC(=O)[C@H](Cc1ccc(O)cc1)NC(=O)[C@H](CC(N)=O)NC(=O)[C@H](CC(=O)O)NC(=O)[C@@H](NC(=O)[C@H](Cc1ccccc1)NC(=O)[C@@H](NC(=O)[C@H](C)NC(=O)[C@H](CC(=O)O)NC(=O)[C@H](CO)NC(=O)[C@@H](N)Cc1c[nH]cn1)C(C)C)[C@@H](C)O)[C@@H](C)O)C(C)C)C(=O)N[C@@H](CCCCN)C(=O)N[C@@H](CC(N)=O)C(=O)N[C@@H](CO)C(=O)N[C@@H](CCCNC(=N)N)C(=O)N[C@H](C(=O)N[C@@H](CO)C(=O)N1CCC[C@H]1C(=O)N1CCC[C@H]1C(=O)N1CCC[C@H]1C(=O)N[C@@H](CCCCNC(=O)[C@@H](N)Cc1c[nH]c2ccccc12)C(N)=O)[C@@H](C)O
B5: P157 (peptide)
peptide: Hexanoyl-HSDAVFTDQYTRLRKQVAAKKYLQSIKQSRTSPPP-NH2
SMILES: CCCCCC(=O)N[C@@H](Cc1c[nH]cn1)C(=O)N[C@@H](CO)C(=O)N[C@@H](CC(=O)O)C(=O)N[C@@H](C)C(=O)N[C@H](C(=O)N[C@@H](Cc1ccccc1)C(=O)N[C@H](C(=O)N[C@@H](CC(=O)O)C(=O)N[C@@H](CCC(N)=O)C(=O)N[C@@H](Cc1ccc(O)cc1)C(=O)N[C@H](C(=O)N[C@@H](CCCNC(=N)N)C(=O)N[C@@H](CC(C)C)C(=O)N[C@@H](CCCNC(=N)N)C(=O)N[C@@H](CCCCN)C(=O)N[C@@H](CCC(N)=O)C(=O)N[C@H](C(=O)N[C@@H](C)C(=O)N[C@@H](C)C(=O)N[C@@H](CCCCN)C(=O)N[C@@H](CCCCN)C(=O)N[C@@H](Cc1ccc(O)cc1)C(=O)N[C@@H](CC(C)C)C(=O)N[C@@H](CCC(N)=O)C(=O)N[C@@H](CO)C(=O)N[C@H](C(=O)N[C@@H](CCCCN)C(=O)N[C@@H](CCC(N)=O)C(=O)N[C@@H](CO)C(=O)N[C@@H](CCCNC(=N)N)C(=O)N[C@H](C(=O)N[C@@H](CO)C(=O)N1CCC[C@H]1C(=O)N1CCC[C@H]1C(=O)N1CCC[C@H]1C(N)=O)[C@@H](C)O)[C@@H](C)CC)C(C)C)[C@@H](C)O)[C@@H](C)O)C(C)C
B6: P156 (peptide)
peptide: Hexanoyl-HSDAVFTDNYTRLLLKVAAKKYLQSIKNSRTSPPP-NH2
SMILES: CCCCCC(=O)N[C@@H](Cc1c[nH]cn1)C(=O)N[C@@H](CO)C(=O)N[C@@H](CC(=O)O)C(=O)N[C@@H](C)C(=O)N[C@H](C(=O)N[C@@H](Cc1ccccc1)C(=O)N[C@H](C(=O)N[C@@H](CC(=O)O)C(=O)N[C@@H](CC(N)=O)C(=O)N[C@@H](Cc1ccc(O)cc1)C(=O)N[C@H](C(=O)N[C@@H](CCCNC(=N)N)C(=O)N[C@@H](CC(C)C)C(=O)N[C@@H](CC(C)C)C(=O)N[C@@H](CC(C)C)C(=O)N[C@@H](CCCCN)C(=O)N[C@H](C(=O)N[C@@H](C)C(=O)N[C@@H](C)C(=O)N[C@@H](CCCCN)C(=O)N[C@@H](CCCCN)C(=O)N[C@@H](Cc1ccc(O)cc1)C(=O)N[C@@H](CC(C)C)C(=O)N[C@@H](CCC(N)=O)C(=O)N[C@@H](CO)C(=O)N[C@H](C(=O)N[C@@H](CCCCN)C(=O)N[C@@H](CC(N)=O)C(=O)N[C@@H](CO)C(=O)N[C@@H](CCCNC(=N)N)C(=O)N[C@H](C(=O)N[C@@H](CO)C(=O)N1CCC[C@H]1C(=O)N1CCC[C@H]1C(=O)N1CCC[C@H]1C(N)=O)[C@@H](C)O)[C@@H](C)CC)C(C)C)[C@@H](C)O)[C@@H](C)O)C(C)C
B7: P90 (peptide)
peptide: Hydrocinnamoyl-HSDAVFTDNYTRLRKQVAAKKYLQSIKNSRTSPPP-NH2
SMILES: CC[C@H](C)[C@H](NC(=O)[C@H](CO)NC(=O)[C@H](CCC(N)=O)NC(=O)[C@H](CC(C)C)NC(=O)[C@H](Cc1ccc(O)cc1)NC(=O)[C@H](CCCCN)NC(=O)[C@H](CCCCN)NC(=O)[C@H](C)NC(=O)[C@H](C)NC(=O)[C@@H](NC(=O)[C@H](CCC(N)=O)NC(=O)[C@H](CCCCN)NC(=O)[C@H](CCCNC(=N)N)NC(=O)[C@H](CC(C)C)NC(=O)[C@H](CCCNC(=N)N)NC(=O)[C@@H](NC(=O)[C@H](Cc1ccc(O)cc1)NC(=O)[C@H](CC(N)=O)NC(=O)[C@H](CC(=O)O)NC(=O)[C@@H](NC(=O)[C@H](Cc1ccccc1)NC(=O)[C@@H](NC(=O)[C@H](C)NC(=O)[C@H](CC(=O)O)NC(=O)[C@H](CO)NC(=O)[C@H](Cc1c[nH]cn1)NC(=O)CCc1ccccc1)C(C)C)[C@@H](C)O)[C@@H](C)O)C(C)C)C(=O)N[C@@H](CCCCN)C(=O)N[C@@H](CC(N)=O)C(=O)N[C@@H](CO)C(=O)N[C@@H](CCCNC(=N)N)C(=O)N[C@H](C(=O)N[C@@H](CO)C(=O)N1CCC[C@H]1C(=O)N1CCC[C@H]1C(=O)N1CCC[C@H]1C(N)=O)[C@@H](C)O

*1 amine or outer side, *2 acyl side, *3 side chain or, on linkers, in order; H or OH if unused. Where no end group is shown, it is not given here. Side-chain parts run from the residue outwards. The star is where a group is joined. γGlu = O=C(O)[C@H](CCC(=O)[*:2])N[*:1]; Hydrocinnamoyl = O=C(CCc1ccccc1)*; Palmitoyl = CCCCCCCCCCCCCCCC(=O)*; Hexanoyl = CCCCCC(=O)*; Bz = O=C(c1ccccc1)*

In the assay the target is T1, human VPAC2 receptor (human) (UniProt P41587).
T1 sequence: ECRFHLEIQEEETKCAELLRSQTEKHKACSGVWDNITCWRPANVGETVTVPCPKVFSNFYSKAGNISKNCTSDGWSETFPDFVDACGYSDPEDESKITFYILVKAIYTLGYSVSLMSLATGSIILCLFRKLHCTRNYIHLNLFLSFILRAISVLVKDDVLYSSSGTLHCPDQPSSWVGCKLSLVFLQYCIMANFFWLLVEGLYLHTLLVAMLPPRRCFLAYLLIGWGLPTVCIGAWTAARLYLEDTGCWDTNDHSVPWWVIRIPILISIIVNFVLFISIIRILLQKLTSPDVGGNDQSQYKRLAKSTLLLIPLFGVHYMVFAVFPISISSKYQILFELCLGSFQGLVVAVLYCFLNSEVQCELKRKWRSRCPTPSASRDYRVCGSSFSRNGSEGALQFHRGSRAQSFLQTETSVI
B1 yielded an EC50 (nM) for cAMP generation, Alpha Screen of 1.82 nM and an EC50 (nM) for cAMP generation, DiscoveRx of 2.8 nM. In the same order, the values of B2 are 1.9 nM and 0.76 nM. With B3, the EC50 (nM) for cAMP generation, Alpha Screen is 0.12 nM. On to B4, for which the EC50 (nM) for cAMP generation, Alpha Screen came to 1.78 nM.

Molecule B5 gave an EC50 (nM) for cAMP generation, Alpha Screen of 0.06 nM. B6 gave an EC50 (nM) for cAMP generation, Alpha Screen of 0.29 nM.

B7 registered an EC50 (nM) for cAMP generation, Alpha Screen of 4.01 nM and an EC50 (nM) for cAMP generation, DiscoveRx of 1.7 nM.
